# Reference: patent US20110165161A1, “ANTI-EPCAM ANTIBODIES THAT INDUCE APOPTOSIS OF CANCER CELLS AND METHODS USING SAME” (priority 2009, published 2011)
# Marks after values point to notes of the source that are not given here.
# How the values were obtained:
# CHO parental cells = assay: FACS binding of anti-EpCAM antibodies to CHO parental cells; design: species or system Chinese hamster; settings: antibody 0.1 μg/ml; HPS at 300x dilution
# Procedure: 1×10^5 CHO/EpCAM or CHO parental cells were seeded in each well of a v-bottomed 96-well plate and incubated with purified anti-EpCAM antibodies or mouse IgG control antibody 9E10 at concentration of 0.1 μg/ml. A 300× dilution of human cell hyper-immune serum (HPS 300×) was used as binding positive control for both cell lines here. After 1 hr incubation at 4° C., cells were washed twice with 200 μl FACS buffer (1×PBS containing 1% FBS), stained with 100 μl of 1 μg/ml goat-anti-mouse IgG-PE (Southern Biotech, Cat. No. 1032-09) in FACS buffer and then incubated at 4° C. for 30 min. Cells were washed thrice with FACS buffer and analyzed by flow cytometry (BD LSR, BD Life Sciences).
# [1] = test system: Breast cancer T-47D cells; assay: Antibody cytotoxicity assay (Annexin V + PI), T-47D; assay type: cell-based; settings: 1, 3 and 10 μg/ml, overnight
# Procedure: (§1) After a 17-20 hr incubation at 37° C., cells were stained with 0.3 μl of FITC-conjugated Annexin V (Strong Biotech Corp. Cat. No. AVK250) in 50 μl Annexin V binding buffer (Strong Biotech Corp. Cat. No. AVK250) at RT for 20 min. After wash, the cells were then stained with 0.3 μl of propidium iodide in 200 μl Annexin V binding buffer. Annexin V and Propidium Iodide were used as a joint indicator for cell death. The data were acquired with BD FACSCalibur based on an acquisition of 3,000-5,000 cells and analyzed with the Cell Quest software. The combined percentages of the Annexin V+/PI+, Annexin V+/PI− and Annexin V−/PI+populations were considered as dead cells.
# [2] = test system: Colorectal cancer DLD-1 cells; assay: Antibody cytotoxicity assay (Annexin V + PI), DLD-1; assay type: cell-based; settings: 1, 3 and 10 μg/ml, overnight
# Procedure: as §1
# [3] = test system: Gastric cancer NCI-N87 cells; assay: Antibody cytotoxicity assay (Annexin V + PI), NCI-N87; assay type: cell-based; settings: 1, 3 and 10 μg/ml, overnight
# Procedure: as §1
# [4] = test system: Lung cancer NCI-H520 cells; assay: Antibody cytotoxicity assay (Annexin V + PI), NCI-H520; assay type: cell-based; settings: 1, 3 and 10 μg/ml, overnight
# Procedure: as §1
# [5] = test system: Prostate cancer LNCaP cells; assay: Antibody cytotoxicity assay (Annexin V + PI), LNCaP; assay type: cell-based; settings: 1, 3 and 10 μg/ml, overnight
# Procedure: as §1
# [6] = test system: Pharynx cancer FaDu cells; assay: Antibody cytotoxicity assay (Annexin V + PI), FaDu; assay type: cell-based; settings: 1, 3 and 10 μg/ml, overnight
# Procedure: as §1
# [7] = test system: Ovarian cancer NIH:OVCAR-3 cells; assay: Antibody cytotoxicity assay (Annexin V + PI), NIH:OVCAR-3; assay type: cell-based; settings: 1, 3 and 10 μg/ml, overnight
# Procedure: as §1
# [8] = test system: NCI-H358 lung cancer cells; assay: Cell death in NCI-H358 lung cancer cells (Annexin V + PI); assay type: cell-based, human; settings: mean of 5 experiments; mAb 10 μg/ml; 17 hr
# Procedure: (§2) 5×10^4 NCI-H358 cells were seeded to each well of a 96-well plate, and then 10 μg/ml of anti-EpCAM or control (9E10) mAbs diluted in the medium was added into the cells. After a 17-hr incubation at 37° C., the cells were stained with 0.3 μl of FITC-conjugated Annexin V (Strong Biotech Corp. Cat. No. AVK250) in 50 μl Annexin V binding buffer (Strong Biotech Corp. Cat. No. AVK250) at RT for 20 min. After wash, the cells were then stained with 0.3 μl of propidium iodide in 200 μl Annexin V binding buffer. Annexin V and Propidium Iodide were used as a joint indicator for measuring cell death. The data were acquired with BD FACSCalibur based on an acquisition of 3,000-5,000 cells and analyzed with the Cell Quest software. The combined percentages of the Annexin V+/PI+, Annexin V+/PI− and Annexin V−/PI+populations were considered as dead cells.
# [9] = test system: COLO 205 colon cancer cells; assay: Cytotoxicity of anti-EpCAM antibodies in combination with oxaliplatin in COLO 205; assay type: cell-based, human; settings: 24 hr
# Procedure: as §2, with “Oxaliplatin, combined with infusional administration of 2 other chemotherapy drugs, 5-fluorouracil/leucovorin (5-FU/LV), is now considered as one of the as first-line treatments for people with advanced carcinoma of the colon or rectum (André et al. (2004) N Engl J Med 350(23):2343-2351). To test the cytotoxicity of anti-EpCAM antibodies in the presence of oxaliplatin, 1×10^5 COLO 205 cells” for “5×10^4 NCI-H358 cells”, “then 0.03, 0.3 and 3” for “then 10”, “mAbs in combination with oxaliplatin at concentration of 0, 0.01, 0.1, and 1 μg/ml” for “mAbs”, “medium were” for “medium was”, “a 24-hr” for “a 17-hr”
# DLD-1 xenograft = assay: Colorectal cancer DLD-1 xenograft in SCID mice; assay type: in vivo; settings: for tumor volume Mean ± SD: 12.5 mg/kg i.p.
# Procedure: (§3) Whether the in vitro apoptosis-inducing activity of anti-EpCAM antibodies has any in vivo biological relevance was studied in the xenograft model. […] 5×10^6 DLD-1 or 3×10^6 NCI-H358 cells were implanted subcutaneously into the hind flank region of SCID mice (6-7 weeks) on day 0. Treatment by intraperitoneal injection with antibodies at 12.5 mg/kg for DLD-1 or 30 mg/kg for NCI-H358 in 0.1 ml PBS started on day 1 after tumor-cell inoculation and was repeated at days 4, 8, 11, 15, 18, 22 and 25. As control, 9E10 (an mouse anti-myc antibody) at the same dose were used. Five or six mice were used in each group of the experiment. Tumor growth was assessed based on twice-weekly measurement of tumor volume (mm^3) by calipers and the tumor size was calculated using the formula: π/6×larger diameter×(smaller diameter)^2 (Kievit E, Cancer Research, 60:6649-55). Statistical analysis of tumor growth was performed using the Student's t-test.
# NCI-H358 xenograft = assay: Lung cancer NCI-H358 xenograft in SCID mice; assay type: in vivo; settings: for tumor volume Mean ± SD: 30 mg/kg i.p.
# Procedure: as §3
molecule,measurement,setting,value
"12H8: murine anti-human EpCAM monoclonal antibody (IgG2a, K), hybridoma m342-12H8.3; VH SEQ ID NO:3, VL SEQ ID NO:5 (antibody, listed as Mus musculus, V domains shown) VH: QIQLVQSGPELKKPGETVKISCKTSGYTFTDYSMHWVNQAPGKGLKWMGWINTETGEPTYTDDFKGRFAFSLETSASTAYLQINNLKNEDTATYFCARTAVYWGQGTTLTVSS VL: DIQMTQSPSSLSASLGERVSLTCRASQEISGSLSWLQQKPDGTIKRLIYAASTLNSGVPKRFSGRRSGSDYSLTISSLESEDFVDYYCLQYSSYPWSFGGGTKLEIKR","Binding (FACS, Mean fluorescence intensity (MFI)) CHO",CHO parental cells,5
same,Induction of cell death (in words),[1],substantial cell death
same,Induction of cell death (in words),[2],substantial cell death
same,Induction of cell death (in words),[3],substantial cell death
same,Induction of cell death (in words),[4],substantial cell death
same,Induction of cell death (in words),[5],substantial cell death
same,Induction of cell death (in words),[6],substantial cell death
same,Induction of cell death (in words),[7],substantial cell death
same,"% of Annexin V + PI staining (untreated background subtracted), Mean ± SEM",[8],33.6 ± 2.1%
same,% of Annexin V + PI staining (untreated background subtracted),[9]; mAb 0.03 μg/ml + oxaliplatin 0.01 μg/ml,10%
same,% of Annexin V + PI staining (untreated background subtracted),[9]; mAb 0.03 μg/ml + oxaliplatin 0.1 μg/ml,9%
same,% of Annexin V + PI staining (untreated background subtracted),[9]; mAb 0.03 μg/ml + oxaliplatin 1 μg/ml,14%
same,% of Annexin V + PI staining (untreated background subtracted),"[9]; mAb 0.03 μg/ml, oxaliplatin 0 μg/ml",9%
same,% of Annexin V + PI staining (untreated background subtracted),[9]; mAb 0.3 μg/ml + oxaliplatin 1 μg/ml,35%
same,% of Annexin V + PI staining (untreated background subtracted),"[9]; mAb 0.3 μg/ml, oxaliplatin 0 μg/ml",20%
same,% of Annexin V + PI staining (untreated background subtracted),[9]; mAb 3 μg/ml + oxaliplatin 0.01 μg/ml,22%
same,% of Annexin V + PI staining (untreated background subtracted),[9]; mAb 3 μg/ml + oxaliplatin 0.1 μg/ml,26%
same,% of Annexin V + PI staining (untreated background subtracted),[9]; mAb 3 μg/ml + oxaliplatin 1 μg/ml,38%
same,% of Annexin V + PI staining (untreated background subtracted),"[9]; mAb 3 μg/ml, oxaliplatin 0 μg/ml",17%
same,Inhibition of tumor growth (in words),DLD-1 xenograft; colorectal (DLD-1) xenograft,efficiently inhibited
same,tumor volume Mean ± SD,DLD-1 xenograft; d29,296 ± 154* mm^3
same,tumor volume Mean ± SD,DLD-1 xenograft; d32,396 ± 156* mm^3
same,tumor volume Mean ± SD,DLD-1 xenograft; d36,521 ± 189* mm^3
same,tumor volume Mean ± SD,DLD-1 xenograft; d39,619 ± 232* mm^3
same,tumor volume Mean ± SD,DLD-1 xenograft; d43,727 ± 270* mm^3
same,tumor volume Mean ± SD,DLD-1 xenograft; d46,839 ± 292* mm^3
same,tumor volume Mean ± SD,DLD-1 xenograft; d49,898 ± 207* mm^3
same,tumor volume Mean ± SD,NCI-H358 xenograft; d46,325 ± 132* mm^3
same,tumor volume Mean ± SD,NCI-H358 xenograft; d50,475 ± 224* mm^3
same,tumor volume Mean ± SD,NCI-H358 xenograft; d53,597 ± 304* mm^3
same,tumor volume Mean ± SD,NCI-H358 xenograft; d57,656 ± 274* mm^3
same,tumor volume Mean ± SD,NCI-H358 xenograft; d60,680 ± 279* mm^3
same,tumor volume Mean ± SD,NCI-H358 xenograft; d64,859 ± 326* mm^3
same,tumor volume Mean ± SD,NCI-H358 xenograft; d67,1076 ± 464* mm^3
same,Inhibition of tumor growth (in words),NCI-H358 xenograft; lung (NCI-H358) xenograft,efficiently inhibited
